Measured values published in US6727407 (University of California, dated 2004).

Target: T1, GST-CCA1 (Arabidopsis thaliana, UniProt P92973 1-608)
T1 construct: Immobilized on glutathione-agarose beads; also called pGEX-CCA1 product; not shown: glutathione-S-transferase (GST) of pGEX-3X (Pharmacia)
Experiment: GST pull-down of 35S-labeled in vitro translated protein, SDS-PAGE autoradiography
Procedure: CK2 subunits and GBF4 labeled with [^35S]methionine were synthesized by coupled transcription-translation with wheat germ extract (Promega TNT). For in vitro binding, 20 µl of the reactions were added to 200 µl of binding buffer [20 mM Hepes pH 7.6, 100 mM KCl, 10% glycerol, 5 mM EDTA, 0.02% NP40, 1 mM dithiothreitol (DTT), 5 mg/ml bovine serum albumin (BSA)] followed by 10 µl of glutathione-agarose beads with bound GST or GST-CCA1 and incubated at 4° C. The beads were washed with binding buffer, then with binding buffer without BSA. Bound proteins were eluted with 1X SDS-polyacrylamide gel electrophoresis (PAGE) sample buffer and resolved by 12.5% SDS-PAGE. ^35S-labeled bands were detected by autoradiography, and quantitation was performed with a PhosphorImager (Molecular Dynamics).

T1 sequence (P92973 whole entry): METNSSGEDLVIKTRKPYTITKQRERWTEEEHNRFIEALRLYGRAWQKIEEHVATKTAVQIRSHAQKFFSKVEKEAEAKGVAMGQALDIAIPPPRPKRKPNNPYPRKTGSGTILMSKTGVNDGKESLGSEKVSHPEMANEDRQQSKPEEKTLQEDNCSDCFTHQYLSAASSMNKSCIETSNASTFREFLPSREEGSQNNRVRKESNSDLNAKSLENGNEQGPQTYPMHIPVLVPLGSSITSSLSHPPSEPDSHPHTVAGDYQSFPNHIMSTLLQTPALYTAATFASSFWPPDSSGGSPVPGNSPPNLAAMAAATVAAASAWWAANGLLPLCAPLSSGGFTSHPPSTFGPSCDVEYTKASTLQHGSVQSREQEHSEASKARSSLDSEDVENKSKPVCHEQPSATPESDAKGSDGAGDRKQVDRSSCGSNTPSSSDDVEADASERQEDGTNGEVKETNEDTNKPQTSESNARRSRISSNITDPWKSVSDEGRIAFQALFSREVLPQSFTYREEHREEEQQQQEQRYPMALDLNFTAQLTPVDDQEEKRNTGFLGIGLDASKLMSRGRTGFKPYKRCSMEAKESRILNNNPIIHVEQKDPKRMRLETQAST

B1: GBF4, a bZIP transcription factor (35S-labeled, in vitro translated) (other, UniProt P42777 1-270, looked up)
chain: MASFKLMSSSNSDLSRRNSSSASSSPSIRSSHHLRPNPHADHSRISFAYGGGVNDYTFASDSKPFEMAIDVDRSIGDRNSVNNGKSVDDVWKEIVSGEQKTIMMKEEEPEDIMTLEDFLAKAEMDEGASDEIDVKIPTERLNNDGSYTFDFPMQRHSSFQMVEGSMGGGVTRGKRGRVMMEAMDKAAAQRQKRMIKNRESAARSRERKQAYQVELETLAAKLEEENEQLLKEIEESTKERYKKLMEVLIPVDEKPRPPSRPLSRSHSLEW
modifications: [35S]methionine label
notes: Negative control
binding result: no binding
